From paper PMC10139410, “β-Cyclodextrin Polymer-Based Fluorescence Enhancement Strategy via Host–Guest Interaction for Sensitive Assay of SARS-CoV-2”

Assays:
[1] = biological target: T1, SARS-CoV-2 nucleocapsid (N) protein (SARS-CoV-2, UniProt P0DTC9 1-419); assay: circular dichroism; 1 uM each, 30 min at 37 C; 280 nm peak increased; Tris-HCl pH 7.6, 37 C, 30 min; 400 nM aptamer, 240 U/mL Exo I, 1.5 mg/mL beta-CDP; salt not in the material held
[2] = biological target: T1, SARS-CoV-2 nucleocapsid (N) protein; assay: Exo I protection, agarose gel; 600 nM N protein, 400 nM aptamer, 240 U/mL Exo I; labeled form inferred from text on pyrene; Tris-HCl pH 7.6, 37 C, 30 min; 400 nM aptamer, 240 U/mL Exo I, 1.5 mg/mL beta-CDP; salt not in the material held; details: label: 3'-pyrene

B1: N protein-binding aptamer (ssDNA)
DNA: GCTGGATGTCGCTTACGACAATATTCCTTAGGGGCACCGCTACATTGACACATCCAGC
binding result [1]: binds

B2: Pyrene-labeled N protein binding aptamer (ssDNA)
DNA: B1 DNA
modifications: 5'-SH (so in the source); 3'-pyrene
binding result [2]: binds
